# Reference: the RNAGym collection of RNA variant scans (doi:10.7554/elife.90254)
# B1: LINE1-full (parent)
# chain: UACGUAGGUGGUUUUCCCCUGAUAGUGCUAAGGGGGCCUGGAAGUUUGGACUGGGCAGAGCUCAACACAGCGUGGCAAAGUGGCUGUGGCUAGACUGCCUCUCUGGAUUCCUCGUCACUCAGCAGGGCAUCUCUGAGAGAAAUGCC
# Variants of: B1
# Test: self-cleavage, relative activity (ratio to wild type); higher = more cleavage; in vitro, sequencing; the parent is a self-cleaving ribozyme
row,Variant,self-cleavage
1,UACGAAGGUGGUUUUCCCCUGAUAGUGCUAAGGGGGCCUGGAAGUUUGGACUGGGCAGAGCUCAACUCAGCGUGGCAAAGUGGCUGUGGCUAGACUGCCUCUCUGGAUUCCUCGUCACUCAGCAGGGCAUCUCUGAGAGAAAUGCC [U5A A67U],0.14
2,UACGAAGGUGGUUUUCCCCUGAUAGUGCUAAGGGGGCCUGGGAGUUUGGACUGGGCAGAGCUCAACACAGCGUGGCAAAGUGGCUGUGGCUAGACUGCCUCUCUGGAUUCCUCGUCACUCAGCAGGGCAUCUCUGAGAGAAAUGCC [U5A A42G],1.15
3,UACGAAGGUGGUUUUCCCCUGAUAGUGCUAAGGGGGCCUGGAAGUUUGGGCUGGGCAGAGCUCAACACAGCGUGGCAAAGUGGCUGUGGCUAGACUGCCUCUCUGGAUUCCUCGUCACUCAGCAGGGCAUCUCUGAGAGAAAUGCC [U5A A50G],0.78
4,UACGAAGGUGGUUUUCCCCUGAUAGUGCUAAGGGGGCCUGGAAGUUUGGACUGGGCAGAGCUCAACACAGCGUGGCAAGGUGGCUGUGGCUAGACUGCCUCUCUGGAUUCCUCGUCACUCAGCAGGGCAUCUCUGAGAGAAAUGCC [U5A A79G],0.87
5,UACGAAGGUGGUUUUCCCCUGAUAGUGCUAAGGGGGCCUGGAAGUUUGGACUGGGCAGAGCUCAACACAGCGUGGCAAUGUGGCUGUGGCUAGACUGCCUCUCUGGAUUCCUCGUCACUCAGCAGGGCAUCUCUGAGAGAAAUGCC [U5A A79U],0.77
6,UACGAAGGUGGUUUUCCCCUGAUAGUGCUAAGGGGGCCUGGAAGUUUGGACUGGGCAGAGCUCAUCACAGCGUGGCAAAGUGGCUGUGGCUAGACUGCCUCUCUGGAUUCCUCGUCACUCAGCAGGGCAUCUCUGAGAGAAAUGCC [U5A A65U],0.26
7,UACGAAGGUGGUUUUCCCCUGAUAGUGCUAAGGGGGCCUGGAAGUUUGGACUGGGCAGAGCUCAGCACAGCGUGGCAAAGUGGCUGUGGCUAGACUGCCUCUCUGGAUUCCUCGUCACUCAGCAGGGCAUCUCUGAGAGAAAUGCC [U5A A65G],0.08
8,UACGAAGGUGGUUUUCCCCUGAUAGUGCUAGGGGGGCCUGGAAGUUUGGACUGGGCAGAGCUCAACACAGCGUGGCAAAGUGGCUGUGGCUAGACUGCCUCUCUGGAUUCCUCGUCACUCAGCAGGGCAUCUCUGAGAGAAAUGCC [U5A A31G],0.82
9,UACGAAGGUGGUUUUCCCCUGAUAGUGCUAUGGGGGCCUGGAAGUUUGGACUGGGCAGAGCUCAACACAGCGUGGCAAAGUGGCUGUGGCUAGACUGCCUCUCUGGAUUCCUCGUCACUCAGCAGGGCAUCUCUGAGAGAAAUGCC [U5A A31U],1.1
10,UACGAAGGUGGUUUUCCCCUGAUAGUGCUAAGGGGGCCUGGAAGUUUGGACUGGGCAGAGCUCAACACAGCGUGGCAUAGUGGCUGUGGCUAGACUGCCUCUCUGGAUUCCUCGUCACUCAGCAGGGCAUCUCUGAGAGAAAUGCC [U5A A78U],1.89
11,UACUUAGGUGGUUUUCCCCUGAUAGUGCUAAGGGGGCCUGGAAGUUUGGACUGGGCAGAGCUCAACACAGCGCGGCAAAGUGGCUGUGGCUAGACUGCCUCUCUGGAUUCCUCGUCACUCAGCAGGGCAUCUCUGAGAGAAAUGCC [G4U U73C],2.45
12,UACGAAGGUGGUUUUCCCCUGAUAGUGCUAAGGGGGCCUGGAAGUUUGGACUGGGCAGUGCUCAACACAGCGUGGCAAAGUGGCUGUGGCUAGACUGCCUCUCUGGAUUCCUCGUCACUCAGCAGGGCAUCUCUGAGAGAAAUGCC [U5A A59U],0.52
13,UACGAAGGUGGUUUUCCCCUGAUAGUGCUAAGGGGGCCUGGAAGUUUGGACUGGGCAGGGCUCAACACAGCGUGGCAAAGUGGCUGUGGCUAGACUGCCUCUCUGGAUUCCUCGUCACUCAGCAGGGCAUCUCUGAGAGAAAUGCC [U5A A59G],0.11
14,UACUUAGGUGGUUUUCCCCUGAUAGUGCUAAGGGGGCCUGGAAGUUUGGACUGGGCAGAGCUCAACACAGCGUGGCAAAGUGGCUGUGGCUAGACUGCCCCUCUGGAUUCCUCGUCACUCAGCAGGGCAUCUCUGAGAGAAAUGCC [G4U U100C],1.73
15,UACGAAGGUGGUUUUCCCCUGAUAGUGCUAAGGGGGCCUGGAAGUUUGGACUGGGCAGAGCUCAACACAGCGUGGCAAAGUGGCUGUGGCUAGACUGCCUCUCUGGAUUCCUCGUCACUCGGCAGGGCAUCUCUGAGAGAAAUGCC [U5A A121G],0.84
16,UACUUAGGUGGUUUUCCCCUGAUAGUGCUAAGGGGGCCUGGAAGUUUGGACUGGGCAGAGCUCAACACAGCGUGGCAAAGUGGCUGUGGCUAGACUGCCUCUCUGGAUUCCUCGUCACUCAGCAGGGCAACUCUGAGAGAAAUGCC [G4U U130A],1.16
17,UACUUAGGUGGUUUUCCCCUGAUAGUGCUAAGGGGGCCUGGAAGUUUGGACUGGGCAGAGCUCAACACAGCGUGGCAAAGUGGCUGUGGCUAGACAGCCUCUCUGGAUUCCUCGUCACUCAGCAGGGCAUCUCUGAGAGAAAUGCC [G4U U96A],0.09
18,UACGAAGGUGGUUUUCCCCUGAUAGUGCUAAGGGGGCCUGGAAGUUUGGACUGGGCAGAGCUCAACACAGCGUGGCAAAGUGGCUGUGGCUAGACUGCCUCUCUGGAUUCCUCGUCACUCAGCGGGGCAUCUCUGAGAGAAAUGCC [U5A A124G],1.75
19,UACGAAGGUGGUUUUCCCCUGGUAGUGCUAAGGGGGCCUGGAAGUUUGGACUGGGCAGAGCUCAACACAGCGUGGCAAAGUGGCUGUGGCUAGACUGCCUCUCUGGAUUCCUCGUCACUCAGCAGGGCAUCUCUGAGAGAAAUGCC [U5A A22G],0.73
20,UACUUAGGUGGUUUUCCCCUGAUAGUGCUAAGGGGGCCUGGAAGAUUGGACUGGGCAGAGCUCAACACAGCGUGGCAAAGUGGCUGUGGCUAGACUGCCUCUCUGGAUUCCUCGUCACUCAGCAGGGCAUCUCUGAGAGAAAUGCC [G4U U45A],1.04
